Data as given in patent US20100047228.

Test system: delta-plasminogen
Sequence (chain, as listed by the source mutant): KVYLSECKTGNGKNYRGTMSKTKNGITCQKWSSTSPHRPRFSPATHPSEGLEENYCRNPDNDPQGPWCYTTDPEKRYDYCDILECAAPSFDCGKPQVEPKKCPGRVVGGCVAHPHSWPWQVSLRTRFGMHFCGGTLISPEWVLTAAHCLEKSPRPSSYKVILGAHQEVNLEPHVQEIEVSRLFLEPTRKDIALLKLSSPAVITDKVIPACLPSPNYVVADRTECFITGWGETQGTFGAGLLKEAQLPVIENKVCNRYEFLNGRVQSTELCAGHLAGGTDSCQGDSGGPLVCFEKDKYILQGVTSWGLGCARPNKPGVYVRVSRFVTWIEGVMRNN

urokinase
conversion of one-chain delta-plasminogen into two-chain delta-plasmin (reduced SDS-PAGE): delta-plasminogen indeed can be activated by all three plasminogen activators
